# Data: patent EP4786492A1
# B1: Hab015VL4VH1a-hFc (scFv, part only; not given: scFv linker and human IgG1 Fc, V domains shown, not shown: another chain or arm of the molecule; a dimerising Fc or GST; small tags and cut ends)
# VL: NIVLTQSPATLSLSPGERATLSCKASENVGTYVSWFQQKPGQSPRLLIYGASNRYTGIPARFSGSGSGTDFTLTISSLEPEDFAVYYCGQFYSFPSTFGGGTKVEIK
# VH: EVQLVESGGGLVKPGGSLRLSCAASGITFSNFWMNWVRQAPGKGLEWVGQIRLKSDDYATHYAESVKGRFTISREDSKNTVYLQMNSLKTEDTAVYYCTTGYYFDYWGQGTTVTVSS
# B2: Hab009VL2aVH1-hFc (scFv, part only; not given: VL-VH linker and human IgG1 Fc, V domains shown, not shown: another chain or arm of the molecule; a dimerising Fc or GST; small tags and cut ends)
# VL: DIVMTQSPLSLPVTPGEPASISCRASQTISDYLHWYLQKPGQSPRLLIKYASQSISGVPDRFSGSGSGTDFTLKISRVEAEDVGVYYCQQGHSFPLTFGQGTKLEIK
# VH: EVQLVQSGAEVKKPGASVKVSCKASGYTFTSYWMHWVRQAPGQRLEWMGTIYPGNSDTRYNQKFKDRVTITADTSASTAYMELSSLRSEDTAVYYCTRSYDYGDLDYWGQGTTVTVSS
# Columns and labels:
# [1] = biological target: monkey DLL3 on CHO-K1-cyno DLL3 cells (cynomolgus monkey); assay: FACS, CHO-K1-cyno DLL3 cells, 0.8 nM antibody
# monkey DLL3 on CHO-K1-cyno DLL3 cells (cynomolgus monkey), sequence (chain, as listed by the source limits assumed): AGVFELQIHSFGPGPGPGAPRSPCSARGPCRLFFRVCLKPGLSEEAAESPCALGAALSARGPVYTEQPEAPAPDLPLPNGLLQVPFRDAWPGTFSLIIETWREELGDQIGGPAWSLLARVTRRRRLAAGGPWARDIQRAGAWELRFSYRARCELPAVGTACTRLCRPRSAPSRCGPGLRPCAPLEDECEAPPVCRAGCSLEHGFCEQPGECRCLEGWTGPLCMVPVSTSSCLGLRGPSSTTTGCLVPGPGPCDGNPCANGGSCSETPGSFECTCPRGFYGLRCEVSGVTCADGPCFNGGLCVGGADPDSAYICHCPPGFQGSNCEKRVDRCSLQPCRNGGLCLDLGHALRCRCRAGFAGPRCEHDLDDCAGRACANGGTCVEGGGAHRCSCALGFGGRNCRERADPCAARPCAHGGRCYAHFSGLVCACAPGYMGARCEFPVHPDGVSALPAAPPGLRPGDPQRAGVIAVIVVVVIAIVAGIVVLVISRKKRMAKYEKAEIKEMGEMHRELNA
# [2] = biological target: monkey DLL3 on CHO-K1-cyno DLL3 cells (cynomolgus monkey); assay: FACS, CHO-K1-cyno DLL3 cells, 100 nM antibody
# [3] = biological target: human DLL3 protein expressed on CHO-K1 recombinant cells (human DLL3 extracellular segment fused to EpCAM transmembrane and intracellular regions) (human) (UniProt Q9NYJ7); assay: FACS, CHO-K1 hDLL3 cells, 100 nM antibody
# human DLL3 protein expressed on CHO-K1 recombinant cells (human DLL3 extracellular segment fused to EpCAM transmembrane and intracellular regions) (human), sequence (Q9NYJ7 other isoform, or with tags, fused parts or gaps limits assumed): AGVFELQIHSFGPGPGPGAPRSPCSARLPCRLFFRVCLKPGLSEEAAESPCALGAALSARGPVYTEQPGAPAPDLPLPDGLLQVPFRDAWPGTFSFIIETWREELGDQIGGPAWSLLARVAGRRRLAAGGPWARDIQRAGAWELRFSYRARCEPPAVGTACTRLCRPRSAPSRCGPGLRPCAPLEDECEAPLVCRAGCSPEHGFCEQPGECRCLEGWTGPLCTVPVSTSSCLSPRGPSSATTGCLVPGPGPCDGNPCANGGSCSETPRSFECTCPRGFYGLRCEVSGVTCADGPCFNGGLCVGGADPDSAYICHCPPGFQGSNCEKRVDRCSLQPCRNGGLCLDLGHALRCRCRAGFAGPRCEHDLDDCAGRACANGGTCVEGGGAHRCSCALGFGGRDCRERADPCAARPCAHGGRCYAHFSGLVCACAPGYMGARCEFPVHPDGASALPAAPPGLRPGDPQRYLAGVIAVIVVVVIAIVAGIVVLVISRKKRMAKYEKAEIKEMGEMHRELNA
# [4] = biological target: mouse DLL3 on CHO-K1-mDLL3 cells (mouse) (UniProt O88516); assay: FACS, CHO-K1-mDLL3 cells, 100 nM antibody
# mouse DLL3 on CHO-K1-mDLL3 cells (mouse), sequence (O88516 other isoform, or with tags, fused parts or gaps limits assumed): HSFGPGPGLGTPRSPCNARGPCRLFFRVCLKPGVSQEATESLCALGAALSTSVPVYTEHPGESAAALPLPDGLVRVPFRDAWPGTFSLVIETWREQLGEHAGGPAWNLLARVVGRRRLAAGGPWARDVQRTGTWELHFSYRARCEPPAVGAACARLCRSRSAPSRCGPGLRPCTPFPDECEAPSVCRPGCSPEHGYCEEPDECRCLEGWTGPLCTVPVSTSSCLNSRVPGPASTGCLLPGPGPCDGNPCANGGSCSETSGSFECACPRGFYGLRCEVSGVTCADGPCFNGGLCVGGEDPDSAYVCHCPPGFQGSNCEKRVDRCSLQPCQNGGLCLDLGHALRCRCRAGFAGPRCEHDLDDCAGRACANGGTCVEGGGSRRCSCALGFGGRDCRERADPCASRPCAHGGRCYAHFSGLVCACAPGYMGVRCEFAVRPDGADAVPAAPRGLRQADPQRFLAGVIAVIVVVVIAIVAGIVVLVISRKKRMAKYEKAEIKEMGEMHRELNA
# [5] = biological target: human DLL3 protein expressed on CHO-K1 recombinant cells (human DLL3 extracellular segment fused to EpCAM transmembrane and intracellular regions) (human) (UniProt Q9NYJ7); assay: FACS, CHO-K1 hDLL3 cells, 0.8 nM antibody
# [6] = biological target: monkey DLL3 on CHO-K1-cyno DLL3 cells (cynomolgus monkey); assay: FACS, CHO-K1-cyno DLL3 cells, 0.16 nM antibody
# [7] = biological target: DLL3 endogenously expressed on NCI-H82 cells (UniProt Q9NYJ7); assay: FACS on NCI-H82 cells; antibody 0.00128 nM
# DLL3 endogenously expressed on NCI-H82 cells, sequence (Q9NYJ7 27-618): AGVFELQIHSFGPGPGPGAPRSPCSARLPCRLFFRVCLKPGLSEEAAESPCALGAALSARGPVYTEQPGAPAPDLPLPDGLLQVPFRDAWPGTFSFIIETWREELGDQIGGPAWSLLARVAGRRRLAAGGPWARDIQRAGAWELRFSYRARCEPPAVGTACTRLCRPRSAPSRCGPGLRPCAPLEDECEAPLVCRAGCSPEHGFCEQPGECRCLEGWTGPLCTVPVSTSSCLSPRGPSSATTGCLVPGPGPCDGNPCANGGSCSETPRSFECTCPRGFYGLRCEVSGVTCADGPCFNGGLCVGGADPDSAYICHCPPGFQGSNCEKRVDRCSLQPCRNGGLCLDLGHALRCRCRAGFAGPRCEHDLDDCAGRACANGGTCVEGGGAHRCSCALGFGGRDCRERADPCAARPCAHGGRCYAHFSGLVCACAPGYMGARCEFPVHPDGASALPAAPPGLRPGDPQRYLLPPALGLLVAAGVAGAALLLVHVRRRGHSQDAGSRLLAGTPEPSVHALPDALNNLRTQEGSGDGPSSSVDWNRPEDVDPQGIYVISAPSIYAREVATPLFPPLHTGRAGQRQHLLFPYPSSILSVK
# [8] = biological target: DLL3 endogenously expressed on NCI-H82 cells (UniProt Q9NYJ7); assay: FACS on NCI-H82 cells; antibody 0.032 nM
# [9] = biological target: mouse DLL3 on CHO-K1-mDLL3 cells (mouse) (UniProt O88516); assay: FACS, CHO-K1-mDLL3 cells, 0.00128 nM antibody
# [10] = biological target: monkey DLL3 on CHO-K1-cyno DLL3 cells (cynomolgus monkey); assay: FACS, CHO-K1-cyno DLL3 cells, 0.032 nM antibody
# [11] = biological target: human DLL3 protein expressed on CHO-K1 recombinant cells (human DLL3 extracellular segment fused to EpCAM transmembrane and intracellular regions) (human) (UniProt Q9NYJ7); assay: FACS, CHO-K1 hDLL3 cells, 0.16 nM antibody
# [12] = biological target: monkey DLL3 on CHO-K1-cyno DLL3 cells (cynomolgus monkey); assay: FACS, CHO-K1-cyno DLL3 cells, 0.00128 nM antibody
# [13] = biological target: human DLL3 protein expressed on CHO-K1 recombinant cells (human DLL3 extracellular segment fused to EpCAM transmembrane and intracellular regions) (human) (UniProt Q9NYJ7); assay: FACS, CHO-K1 hDLL3 cells, 0.032 nM antibody
# [14] = biological target: monkey DLL3 on CHO-K1-cyno DLL3 cells (cynomolgus monkey); assay: FACS, CHO-K1-cyno DLL3 cells, 0.0064 nM antibody
# [15] = biological target: mouse DLL3 on CHO-K1-mDLL3 cells (mouse) (UniProt O88516); assay: FACS, CHO-K1-mDLL3 cells, 0.0064 nM antibody
# [16] = biological target: DLL3 endogenously expressed on NCI-H82 cells (UniProt Q9NYJ7); assay: FACS on NCI-H82 cells; antibody 0.0064 nM
# [17] = biological target: mouse DLL3 on CHO-K1-mDLL3 cells (mouse) (UniProt O88516); assay: FACS, CHO-K1-mDLL3 cells, 0.16 nM antibody
# [18] = biological target: mouse DLL3 on CHO-K1-mDLL3 cells (mouse) (UniProt O88516); assay: FACS, CHO-K1-mDLL3 cells, 0.032 nM antibody
# [19] = biological target: human DLL3 protein expressed on CHO-K1 recombinant cells (human DLL3 extracellular segment fused to EpCAM transmembrane and intracellular regions) (human) (UniProt Q9NYJ7); assay: FACS, CHO-K1 hDLL3 cells, 4 nM antibody
# [20] = biological target: monkey DLL3 on CHO-K1-cyno DLL3 cells (cynomolgus monkey); assay: FACS, CHO-K1-cyno DLL3 cells, 4 nM antibody
# [21] = biological target: DLL3 endogenously expressed on NCI-H82 cells (UniProt Q9NYJ7); assay: FACS on NCI-H82 cells; antibody 0.16 nM
# [22] = biological target: human DLL3 protein expressed on CHO-K1 recombinant cells (human DLL3 extracellular segment fused to EpCAM transmembrane and intracellular regions) (human) (UniProt Q9NYJ7); assay: FACS, CHO-K1 hDLL3 cells, 0.0064 nM antibody
# [23] = biological target: human DLL3 protein expressed on CHO-K1 recombinant cells (human DLL3 extracellular segment fused to EpCAM transmembrane and intracellular regions) (human) (UniProt Q9NYJ7); assay: FACS, CHO-K1 hDLL3 cells, 20 nM antibody
# [24] = biological target: mouse DLL3 on CHO-K1-mDLL3 cells (mouse) (UniProt O88516); assay: FACS, CHO-K1-mDLL3 cells, 0.8 nM antibody
# [25] = biological target: DLL3 endogenously expressed on NCI-H82 cells (UniProt Q9NYJ7); assay: FACS on NCI-H82 cells; antibody 100 nM
# [26] = biological target: human DLL3 protein expressed on CHO-K1 recombinant cells (human DLL3 extracellular segment fused to EpCAM transmembrane and intracellular regions) (human) (UniProt Q9NYJ7); assay: FACS, CHO-K1 hDLL3 cells, 0.00128 nM antibody
# [27] = biological target: mouse DLL3 on CHO-K1-mDLL3 cells (mouse) (UniProt O88516); assay: FACS, CHO-K1-mDLL3 cells, 20 nM antibody
# [28] = biological target: human delta-like ligand 3 (DLL3) on SHP77 cells (human) (UniProt Q9NYJ7); assay: FACS on SHP77 cells
# human delta-like ligand 3 (DLL3) on SHP77 cells (human), sequence (Q9NYJ7 27-618, stated change not applied): as the sequence (Q9NYJ7 27-618) above
# [29] = biological target: human DLL4 protein (Acro, Cat. No. DL4-H5227) (human) (UniProt Q9NR61); assay: ELISA, coated hDLL4; maximum over 0.1, 1, 10, 100 nM antibody
# human DLL4 protein (Acro, Cat. No. DL4-H5227) (human), sequence (Q9NR61 27-524 limits assumed): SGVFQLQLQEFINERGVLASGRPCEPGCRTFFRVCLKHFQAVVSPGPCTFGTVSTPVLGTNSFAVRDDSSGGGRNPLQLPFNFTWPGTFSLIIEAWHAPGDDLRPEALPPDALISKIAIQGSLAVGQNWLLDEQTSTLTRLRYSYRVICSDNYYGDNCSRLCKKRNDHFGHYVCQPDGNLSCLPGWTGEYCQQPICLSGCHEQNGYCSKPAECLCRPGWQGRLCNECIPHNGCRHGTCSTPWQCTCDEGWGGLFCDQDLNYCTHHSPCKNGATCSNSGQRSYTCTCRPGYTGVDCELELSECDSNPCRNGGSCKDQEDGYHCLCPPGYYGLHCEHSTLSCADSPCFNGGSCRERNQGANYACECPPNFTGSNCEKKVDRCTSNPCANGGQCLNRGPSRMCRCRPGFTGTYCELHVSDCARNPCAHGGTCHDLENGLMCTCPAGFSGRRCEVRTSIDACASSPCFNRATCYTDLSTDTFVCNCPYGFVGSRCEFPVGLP
# [30] = biological target: DLL3 endogenously expressed on NCI-H82 cells (UniProt Q9NYJ7); assay: FACS on NCI-H82 cells; antibody 0.8 nM
# [31] = biological target: DLL3 endogenously expressed on NCI-H82 cells (UniProt Q9NYJ7); assay: FACS on NCI-H82 cells; antibody 4 nM
# [32] = biological target: monkey DLL3 on CHO-K1-cyno DLL3 cells (cynomolgus monkey); assay: FACS, CHO-K1-cyno DLL3 cells, 20 nM antibody
# [33] = biological target: mouse DLL3 on CHO-K1-mDLL3 cells (mouse) (UniProt O88516); assay: FACS, CHO-K1-mDLL3 cells, 4 nM antibody
# [34] = biological target: human DLL1 protein (Acro, Cat. No. DL1-H52H8) (human) (UniProt O00548); assay: ELISA, coated hDLL1; maximum over 0.1, 1, 10, 100 nM antibody
# human DLL1 protein (Acro, Cat. No. DL1-H52H8) (human), sequence (O00548 18-540 limits assumed): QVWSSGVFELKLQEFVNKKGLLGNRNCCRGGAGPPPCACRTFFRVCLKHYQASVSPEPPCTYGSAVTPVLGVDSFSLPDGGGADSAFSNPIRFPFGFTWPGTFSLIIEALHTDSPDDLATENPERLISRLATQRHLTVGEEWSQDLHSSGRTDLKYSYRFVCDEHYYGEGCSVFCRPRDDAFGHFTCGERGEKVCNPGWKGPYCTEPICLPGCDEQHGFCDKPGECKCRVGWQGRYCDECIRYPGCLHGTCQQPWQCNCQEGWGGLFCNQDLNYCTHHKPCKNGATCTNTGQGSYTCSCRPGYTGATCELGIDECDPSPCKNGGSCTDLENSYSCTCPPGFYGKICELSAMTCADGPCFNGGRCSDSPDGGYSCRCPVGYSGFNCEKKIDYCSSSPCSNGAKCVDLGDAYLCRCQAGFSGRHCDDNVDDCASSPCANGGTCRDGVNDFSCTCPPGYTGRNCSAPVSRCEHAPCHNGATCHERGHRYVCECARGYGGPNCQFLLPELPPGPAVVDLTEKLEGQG
# [35] = biological target: DLL3 endogenously expressed on NCI-H82 cells (UniProt Q9NYJ7); assay: FACS on NCI-H82 cells; antibody 20 nM
# [36] = biological target: human DLL3 protein (extracellular segment, His tag) (human) (UniProt Q9NYJ7); assay: SPR (Biacore 8K), antibody captured on Protein A chip, DLL3 antigen in solution, 1:1 Langmuir fit
# human DLL3 protein (extracellular segment, His tag) (human), sequence (Q9NYJ7 27-492): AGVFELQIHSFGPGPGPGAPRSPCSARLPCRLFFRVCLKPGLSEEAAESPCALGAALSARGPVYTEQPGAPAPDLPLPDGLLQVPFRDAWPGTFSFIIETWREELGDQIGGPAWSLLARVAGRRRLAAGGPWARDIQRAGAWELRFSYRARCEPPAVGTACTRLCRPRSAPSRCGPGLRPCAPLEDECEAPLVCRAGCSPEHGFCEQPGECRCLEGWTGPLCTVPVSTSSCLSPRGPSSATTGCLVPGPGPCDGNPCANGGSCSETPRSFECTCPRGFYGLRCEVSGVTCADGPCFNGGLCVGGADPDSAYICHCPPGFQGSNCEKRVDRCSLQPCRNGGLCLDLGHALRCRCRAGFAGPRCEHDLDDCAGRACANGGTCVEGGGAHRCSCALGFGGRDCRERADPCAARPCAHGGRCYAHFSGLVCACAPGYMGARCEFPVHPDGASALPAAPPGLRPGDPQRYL
binder,measurement,setting,value
B1,MFI,[1],4470 MFI
same,MFI,[2],7590 MFI
same,MFI,[3],11400 MFI
same,MFI,[4],1450 MFI
same,MFI,[5],5070 MFI
same,MFI,[6],1240 MFI
same,MFI,[7],118
same,MFI,[8],213
same,MFI,[9],117 MFI
same,MFI,[10],399 MFI
same,MFI,[11],941 MFI
same,MFI,[12],123 MFI
same,MFI,[13],294 MFI
same,MFI,[14],168 MFI
same,MFI,[15],123 MFI
same,MFI,[16],137
same,MFI,[17],339 MFI
same,MFI,[18],172 MFI
same,MFI,[19],7920 MFI
same,MFI,[20],5910 MFI
same,MFI,[21],489
same,MFI,[22],152 MFI
same,MFI,[23],10600 MFI
same,MFI,[24],779 MFI
same,MFI,[25],1520
same,MFI,[26],122 MFI
same,MFI,[27],1150 MFI
same,MFI at 0.00128 nM,[28],99 MFI
same,MFI at 0.0064 nM,[28],112 MFI
same,MFI at 0.032 nM,[28],174 MFI
same,MFI at 0.16 nM,[28],385 MFI
same,MFI at 0.8 nM,[28],730 MFI
same,MFI at 4 nM,[28],762 MFI
same,MFI at 20 nM,[28],962 MFI
same,MFI at 100 nM,[28],1240 MFI
same,Emax of OD450 nm binding value,[29],0.65 OD450 nm
same,MFI,[30],993
same,MFI,[31],1060
same,MFI,[32],6720 MFI
same,MFI,[33],1040 MFI
same,Emax of OD450 nm binding value,[34],0.44 OD450 nm
same,MFI,[35],1200
B2,MFI,[1],24300 MFI
same,MFI,[2],28400 MFI
same,MFI,[3],13100 MFI
same,MFI,[4],438 MFI
same,MFI,[5],12000 MFI
same,MFI,[6],13700 MFI
same,MFI,[9],172 MFI
same,MFI,[10],5450 MFI
same,MFI,[11],5930 MFI
same,MFI,[12],1340 MFI
same,MFI,[13],1610 MFI
same,MFI,[14],3160 MFI
same,Kd,[36],328 pM
same,koff,[36],0.0019 s⁻¹
same,kon,[36],5.79e+06 M⁻¹ s⁻¹
same,MFI,[15],238 MFI
same,MFI,[17],300 MFI
same,MFI,[18],272 MFI
same,MFI,[19],12700 MFI
same,MFI,[20],27600 MFI
same,MFI,[22],476 MFI
same,MFI,[23],12600 MFI
same,MFI,[24],338 MFI
same,MFI,[26],210 MFI
same,MFI,[27],398 MFI
same,MFI at 0.00128 nM,[28],108 MFI
same,MFI at 0.0064 nM,[28],128 MFI
same,MFI at 0.032 nM,[28],201 MFI
same,MFI at 0.16 nM,[28],432 MFI
same,MFI at 0.8 nM,[28],683 MFI
same,MFI at 4 nM,[28],784 MFI
same,MFI at 20 nM,[28],825 MFI
same,MFI at 100 nM,[28],929 MFI
same,Emax of OD450 nm binding value,[29],0.06 OD450 nm
same,MFI,[32],28200 MFI
same,MFI,[33],358 MFI
same,Emax of OD450 nm binding value,[34],0.07 OD450 nm
